Assay results: the supplement of paper PMC12783771
± gives the standard deviation of the averaged measurements.

B1: library; numbered along this chain (parent)
chain: MNIQIGELAKRTACPVVTIRFYEQEGLLPPPGRSRGNFRLYGEEHVERLQFIRHCRSLDMPLSDVRTLLSYRKRPDQDCGEVNMLLDEHIRQVESRIGALLELKHHLVELREACSGARPAQSCGILQGLSDCVCDTRGTTAHPSD

Columns and labels:
[1] = variants of: B1; assay: sfGFP reporter fluorescence (15 h) (µM FITC); higher = higher leak; conditions: library round: Round 0; ligand: none
Procedure, shortened: (§1)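 Readout was endpoint sfGFP fluorescence, converted to µM FITC through standard curves. Reactions were 1 μL of BL21 Star (DE3) PANOx-SP extract with pPbrR-sfGFP reporter, 30 μg/mL GamS and linear PbrR templates normalized to 5 nM, containing 1 µM lead chloride, 30 µM zinc acetate or no metal. Incubation lasted 15 hr at 30 °C, with up to three biological replicates.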

[2] = variants of: B1; assay: sfGFP reporter fluorescence (15 h) (µM FITC); higher = stronger transcriptional activation; conditions: library round: Round 0
Procedure, shortened: as §1

| Variant | sfGFP reporter fluorescence [1] | sfGFP reporter fluorescence ([2]; ligand: 1 µM Pb) | sfGFP reporter fluorescence ([2]; ligand: 30 µM Zn) |
| --- | --- | --- | --- |
| MNIQIGELAKRTACPVVTIRKYEQEGLLPPPGRSRGNFRLYGEEHVERLQFIRHCRSLDMPLSDVRTLLSYRKRPDQDCGEVNMLLDEHIRQVESRIGALLELKHHLVELREACSGARPAQSCGILQGLSDCVCDTRGTTAHPSD [F21K] | 0.0607 ± 0.0013 | 0.06157 ± 0.00052 | 0.0641 |
| MNIQIGELAKRTACPVVTIRFYEQEGLLPPPGRSRGNFRLYGEEHVERLQFIRHCRSLDMPLSDVRTLLSYRKRPDQDCGEVNMLLDEHIRQVESRIGALLELKHHLVELREACSGARPAQSCGWLQGLSDCVCDTRGTTAHPSD [I125W] | 0.0588 ± 0.0018 | 0.0596 ± 0.0013 | 0.0564 ± 0.0026 |
| MNIQIGELAKRTACPVVTIRFYEQEGLLPPPGRSRGNFRLYGEEHVERLQFIRHCRSLDMPLSDVRTLLSYRKRPAQDCGEVNMLLDEHIRQVESRIGALLELKHHLVELREACSGARPAQSCGILQGLSDCVCDTRGTTAHPSD [D76A] | 0.06157 ± 0.00052 | 0.0614 ± 0.0034 | 0.202 ± 0.013 |
| MNIQIGELAKRTACPVVTIRFYEQEGLLPPPGRSRGNFRLYGEEHVERLQFIRHCRSLDMPLSDVRTLLSYRKRPDQDCGEVNMLLDEHIRQVESRIGALLELAHHLVELREACSGARPAQSCGILQGLSDCVCDTRGTTAHPSD [K104A] | 0.05974 ± 0.00052 | 0.0759 ± 0.0021 | 0.591 ± 0.037 |
| MNIQIGELAKRTACPVVTIFFYEQEGLLPPPGRSRGNFRLYGEEHVERLQFIRHCRSLDMPLSDVRTLLSYRKRPDQDCGEVNMLLDEHIRQVESRIGALLELKHHLVELREACSGARPAQSCGILQGLSDCVCDTRGTTAHPSD [R20F] | 0.0566 ± 0.0013 | 0.05846 ± 0.00026 | 0.0581 ± 0.0039 |
| MNIQIGELAKRTACPVVTIRFYEQEGLLPPPGRSRGNFLLYGEEHVERLQFIRHCRSLDMPLSDVRTLLSYRKRPDQDCGEVNMLLDEHIRQVESRIGALLELKHHLVELREACSGARPAQSCGILQGLSDCVCDTRGTTAHPSD [R39L] | 0.0581 ± 0.0013 | 0.05901 ± 0.00052 | 0.055 ± 0.0036 |
| MNIQIGELAKRTACPVVTIRFYEQEGLLPPPGRSRGNFRLYGLEHVERLQFIRHCRSLDMPLSDVRTLLSYRKRPDQDCGEVNMLLDEHIRQVESRIGALLELKHHLVELREACSGARPAQSCGILQGLSDCVCDTRGTTAHPSD [E43L] | 0.05113 ± 0.00026 | 0.0713 ± 0.007 | 1.01 ± 0.038 |
| MNIQIGELAKRTACPVVTIRFYEQEGLLPPPGRSRGNFRLYGEEHVERLQFIRHCRSLDMPLSDVRTLLSYRKRPDQDCGEVNMLLDEHIRQVESRIGALLELKHHLVELREACSGARPAQSNGILQGLSDCVCDTRGTTAHPSD [C123N] | 0.0599 ± 0.0018 | 0.0561 ± 0.0015 | 0.05498 ± 0.00052 |
| MNIQIGELAKRTACPVVTIRFYEQEGLLPPPGRSRGNFRLYGEEHVERLQFIRHCRSLDMPLSDVRTLLSYRKRPDQDCGEVNMLLDEHIRQVESRIGALLELKHHLVELREACSGARPAQSYGILQGLSDCVCDTRGTTAHPSD [C123Y] | 0.0586 ± 0.0015 | 0.0579 | 0.0546 ± 0.0026 |
| MNIQIGELAKRTACPVVTIRFYEQEGLLPPPGRSRGNFRLYGEEHVERLQFIRHCRSLDMPLSDVRTLLSYRKRPDQDCGEVNMLLDEHIRQVESRIGALLELKHHLVHLREACSGARPAQSCGILQGLSDCVCDTRGTTAHPSD [E109H] | 0.0581 ± 0.0013 | 0.0867 ± 0.0075 | 0.456 ± 0.012 |
| MNRQIGELAKRTACPVVTIRFYEQEGLLPPPGRSRGNFRLYGEEHVERLQFIRHCRSLDMPLSDVRTLLSYRKRPDQDCGEVNMLLDEHIRQVESRIGALLELKHHLVELREACSGARPAQSCGILQGLSDCVCDTRGTTAHPSD [I3R] | 0.0605 | 0.0792 | 0.376 ± 0.024 |
| MNIQIGELAKRTACPVVTIRFYEQEGLLPPPGRSRGNFRLYGEEHVERLQFIRHCRSLDMNLSDVRTLLSYRKRPDQDCGEVNMLLDEHIRQVESRIGALLELVHHCVELREACSGARPAQSCGILQILSDCVCDTRGTTAHPSD [P61N K104V L107C G128I] | 0.289 ± 0.0057 | 1.306 ± 0.0026 | 2.66 ± 0.067 |
| MNIQIGELAKRTACSVVTIRFYEQEGLLPPPGRSRGNFRLYGEEHVERLQFIRHCRSLDMPLSDVRTLLSYRKRPDQDCGEVNMLLDEHIRQVESRIGALLELKHHLVELREACSGARPAQSCGILQGLSDCVCDTRGTTAHPSD [P15S] | 0.0621 ± 0.0029 | 0.0883 ± 0.0052 | 0.802 ± 0.01 |
| MNIQIGELAKRTACTVVTIRFYEQEGLLPPPGRSRGNFRLYGEEHVERLQFIRHCRSLDMPLSDVRTLLSYRKRPDQDCGEVNMLLDEHIRQVESRIGALLELKHHLVELREACSGARPAQSCGILQGLSDCVCDTRGTTAHPSD [P15T] | 0.0632 ± 0.00078 | 0.1006 ± 0.00078 | 0.859 ± 0.058 |
